Reference: publication PMC7474598

Experiments:
FLAG-SEPN1^D80A (human) = FLAG-SEPN1^D80A (human) (UniProt Q9NZV5); experiment: sucrose gradient sedimentation; lysates of HeLa cells treated for 2 h with DMSO or Tg; 4% to 20% sucrose gradients, 19 fractions, FLAG immunoblot; markers BSA, IgG, catalase
FLAG-SEPN1^U428C (human) = FLAG-SEPN1^U428C (human) (UniProt Q9NZV5); experiment: as above

Row | percent monomer (DMSO-treated cells) (FLAG-SEPN1^D80A (human)) [%] | percent monomer (Tg-treated cells) (FLAG-SEPN1^D80A (human)) [%] | percent oligomer (DMSO-treated cells) (FLAG-SEPN1^D80A (human)) [%] | percent oligomer (Tg-treated cells) (FLAG-SEPN1^D80A (human)) [%] | percent monomer (Tg-treated cells) (FLAG-SEPN1^U428C (human)) [%] | percent oligomer (DMSO-treated cells) (FLAG-SEPN1^U428C (human)) [%] | Substance
1 | 79.7 | 78.4 | 21.5 | 21.5 |  |  | FLAG-SEPN1^D80A (from UniProt Q9NZV5-2 44-556) (natural protein)
2 |  |  |  |  | 61.8 | 96.2 | FLAG-SEPN1^U428C (from UniProt Q9NZV5-2 44-556) (natural protein)
